Target: isolated phosphodiesterase (PDE) domain of RhoPDE (Salpingoeca rosetta) (UniProt F2TZN0)
Assay: SEC

stoichiometry N: 2
Substance: isolated phosphodiesterase (PDE) domain of RhoPDE (from UniProt F2TZN0 386-702) (domain or fragment)

Reference: PMC5685503
